Patent US11464867B2, “Multimeric elastin-like polypeptides” (University of Southern California, priority 2018, dated 2022)
“And” between values parts separate entries of the source, which are not always exact repeats. Equal entries are not always repeated. “Also recorded” adds a separate entry of the source.

Tests used:
Pin1 = Pin1 (Homo sapiens, UniProt Q13526); conditions: cited from earlier work
[1] = cited from earlier work
[2] = system: HR+/HER2− breast cancer patients; conditions: in combination with exemestane; cited from earlier work
BT-474 orthotopic tumors = experiment: Orthotopic BT-474 tumors in nude mice; type: in vivo; conditions: 1 mg/kg every other day for 4 weeks
Description: FIGS. 25A-25B: show results of administration of FAF formulations when tested for efficacy and safety in nude mice bearing orthotopic tumors of BT-474 cell line. Oral Eve at the same drug dose served as a clinically relevant control.
Accounting for nearly 40,000 deaths per year, breast cancer is the second deadliest cancer affecting American women. Everolimus (Eve), an analog of Rapamycin is approved to treat HR+/HER2− subtype in combination with exemestane. Currently administered as an oral formulation, Eve suffers from poor physico-chemical properties and toxicity issues like Rapamycin. Novel FAF formulations were tested for efficacy and safety in nude mice bearing orthotopic tumors of BT-474 cell line. Being a HR+ cell line, BT-474 represents nearly 80% of clinically diagnosed breast cancer. Oral Eve at the same drug dose served as a clinically relevant control. […] This is presumably a result of Eve's poor oral bioavailability.

male NOD mice = experiment: Lymphocytic infiltration of the lacrimal gland in male NOD mice (Sjögren's syndrome model); type: in vivo; conditions: SC 1.0 mg Rapa/kg every other day for 2 weeks
Experimental: FIGS. 23A-23C: FAF-Rapa reduces lymphocytic infiltration in the LG of male NOD mice, FIG. 23A: identity, purity and fluorescence of FAF, FAF-Rapa and rhodamine-labeled FAF-Rapa (Rho-FAF-Rapa) were analyzed by Comassie blue staining and fluorescence imaging of SDS-PAGE. FIG. 23B: One LG from each mouse was collected at the conclusion of the study. Sections from 25th, 50th and 75th percentile sections from each LG were quantified by a blinded observer to determine the average percentage area of infiltrate per gland. Glands from 4 treatment groups (n=15) were compared. Inflamed LG show areas of purple nuclear staining, which indicate foci of infiltrating lymphocytes (outlined in blue). Severe lymphocytic infiltration was reduced by FAF-Rapa (middle panel). Scale bar represents 200 μm. FIG. 23C: The percent area of infiltration was calculated using ImageJ (mean±SD). A Kruskal-Wallis non-parametric test was used to compare groups.
SS is a chronic autoimmune disease that affects about 4 million people in the US. Lymphocytic infiltration and inflammation in the exocrine glands, mainly lacrimal gland (LG) and salivary gland causes severe forms of dry eyes and dry mouth. […] Following this, the LG from all mice were sectioned, stained and lymphocytic infiltration was quantified.

[3] = CsA encapsulation by two-phase solvent evaporation, RP-HPLC; type: physicochemical; conditions: in words
Experimental: The mixture was incubated at 37° C. and samples were collected at different time points up to 48 h.
This was followed by high-speed centrifugation and filtration to remove the excess insoluble drug. […] The mobile phase flow rate was set to 1.0 ml/min. The linear gradient from 20% to 95% of methanol was applied from 0 to 5 min. Then the mobile phase was changed to 95% methanol isocratic flow for 10 min.
This was followed by high-speed centrifugation and filtration to remove the excess insoluble drug. The loading ratio was then determined by reversed-phase high-performance liquid chromatography (RP-HPLC) analysis method.
The drug loading capability of 2nd and 3rd generation carriers were also tested using the same encapsulation method detailed above employing the method of Shi, et al., 2013.

[4] = Dynamic light scattering (DLS) hydrodynamic radius and stability; type: physicochemical
Experimental: FIGS. 5A-5D: CA192 (SEQ ID NO: 3) has a good stability in terms of hydrodynamic radius. There are two fractions present in the CA192 (SEQ ID NO: 3) solution: an aggregated form and dimeric form. A dimerized form has similar hydrodynamic radius, Rh as A192. […] Drug-loaded CA192 (SEQ ID NO: 3) has a mean Rh of 64.5±0.5 nm (p<0.05). […] (FIG. 5C) Size Exclusion Chromatography (SEC) was conducted to fractionate CA192 (SEQ ID NO: 3) depending on their particle size. Two fractions were observed. […] In contrast, the fraction 1 contains a mixture of larger aggregates.
The hydrodynamic radius (Rh) of both the loaded and unloaded fusion protein, along with plain A192, was measured via dynamic light scattering (DLS) using a DynaPro Plate Reader II from Wyatt Technology. Before the DLS measurement, solutions were filtered through […] pore size filters. The concentration of each solution was then adjusted to 20 μM. 60 μL from each sample was pipetted into three different wells on the plate reader and covered by 15 μL mineral oil each to avoid solvent evaporation. Centrifugation was then performed to remove air bubbles. […] Based on this DLS method, Applicants performed a stability assay to explore the stability of the fusion protein by measuring the mean Rh shift during incubation at physiological temperature. Briefly, the fusion solution was incubated at 37° C. for different periods of time up to 48 h and the mean Rh of CA192 at these different time points was measured with DLS. […] There might be some slight aggregation occurring in the CA192 protein solution. […] To determine if this was the case, further separation was conducted with size exclusion chromatography (SEC). This process was performed at 4° C. using a Hiload 26/600 column (26×600 mm, particle size 24-44 μM). […] Fragments with absorption above 10 mAu were collected and concentrated with a Spin-X concentrator (pore size 10 kDa). […] (FIG. 5D) Through measuring the CA192 concentration of both fractions, Applicants determined that 20.8% by mass in solution is represented by the multimerized particles. […]

HeLa cells = experiment: HeLa cell uptake, co-localization with lysosomes (confocal microscopy); type: cell-based; conditions: 30 μM rhodamine-labeled ELP; 120 min; LysoTracker Green
Experimental: Lysosomes were labeled by LysoTracker Green® having the structure:
In order to further validate the potential efficacy of CA192 working as a potent drug binding domain, an in vitro cell uptake study was performed. Briefly, CA192 and A192 was labeled with rhodamine and HeLa cell lysosome with LysoTracker Green (LTG)® having the structure as described herein. For the treatment group, HeLa cells were incubated with 30 μM of rhodamine-labeled (rh)-CA192 and 70 nM of LTG for 120 min. For the control group, HeLa cells were incubated with 30 μM of rhodamine-labeled (rh)-A192 and 70 nM of LTG for 120 min. Cells were then rinsed with warm HBSS three times, maintained in the fresh culture medium, and imaged by confocal microscopy. Images were acquired using a Zeiss laser scanning microscope 510 Meta NLO confocal imaging system equipped with Argon, red HeNe, green HeNe laser, and a Coherent Chameleon Ti-Sapphire laser (LSM) mounted on a vibration-free table (Carl Zeiss, Thornwood, N.Y.). All images were acquired using a Plan-Apochromat 63× Oil immersion lens with a working distance of 0.19 mm.

[5] = SEC / Multi-Angle Static Light Scattering (MALS) of CA192 fractions; type: physicochemical
Experimental: The hydrodynamic radius (Rh) of both the loaded and unloaded fusion protein, along with plain A192, was measured via dynamic light scattering (DLS) using a DynaPro Plate Reader II from Wyatt Technology. Before the DLS measurement, solutions were filtered through […] pore size filters. The concentration of each solution was then adjusted to 20 μM. 60 μL from each sample was pipetted into three different wells on the plate reader and covered by 15 μL mineral oil each to avoid solvent evaporation. Centrifugation was then performed to remove air bubbles. […] Based on this DLS method, Applicants performed a stability assay to explore the stability of the fusion protein by measuring the mean Rh shift during incubation at physiological temperature. Briefly, the fusion solution was incubated at 37° C. for different periods of time up to 48 h and the mean Rh of CA192 at these different time points was measured with DLS. […] There might be some slight aggregation occurring in the CA192 protein solution. […] To determine if this was the case, further separation was conducted with size exclusion chromatography (SEC). This process was performed at 4° C. using a Hiload 26/600 column (26×600 mm, particle size 24-44 μM). […] Fragments with absorption above 10 mAu were collected and concentrated with a Spin-X concentrator (pore size 10 kDa). Two fractions were observed after SEC separation (FIG. 5C). […] (FIG. 5D) Through measuring the CA192 concentration of both fractions, Applicants determined that 20.8% by mass in solution is represented by the multimerized particles. Multi-Angle static Light Scattering (MALS) was then applied to evaluate the aggregation and oligomeric state of CA192. […] Thus, it was concluded that the CA192 fusion protein is mostly maintained as dimerized nanoparticles with a 6.5 nm hydrodynamic radius.
To further evaluate the aggregation and oligomeric state of each fraction, Multi-Angle Static Light Scattering (MALS) was then used to measure the molecular weight of both peaks. […] Similarly, fraction 1 was identified as aggregated form. […]

human albumin = human albumin (Homo sapiens, UniProt P02768); experiment: Competition of CsA-loaded CA192 against human albumin (1 mM, 37° C.); type: in vitro ADME; conditions: 48 h
Experimental: Per molecule of protein, CA192 (SEQ ID NO: 3) binds 10× more drug than albumin. […] The mixture was incubated at 37° C. and samples were collected at different time points up to 48 h. The ELP phase separation was induced to purify CA192 (SEQ ID NO: 3) from the mixture with Albumin, which was—followed by RP-HPLC analysis. (FIG. 4C) Instead of albumin, lipoproteins in the plasma, mainly high-(HDL) and low-(LDL) density lipoprotein, predominantly bind to cyclosporine in the plasma. Thus, CA192-CsA was also tested against mouse plasma over a period of 48 hr.
Samples were collected from the dialysis cassette at different time points between 0 and 192 h and analyzed by RP-HPLC. […] The same drug release experiment was performed using CA192 dimer obtained via SEC. Dialysis was performed against PBS at 37° C. (FIG. 3B) and 4° C. (FIG. 3C). To further validate the release profile, as a control group, with the same encapsulation method, human albumin was explored to load CsA. […] The mixture was incubated at 37° C. and samples were collected at different time points up to 48 h. Another round of […] was performed to purify CA192 from the mixture, followed by RP-HPLC analysis. […] Similar to this competition method against albumin, 300 μM CA192-CsA in PBS was diluted 1:1 in mouse plasma to achieve a final concentration of 150 μM. […]

[6] = Phase transition temperature by optical density (UV-Vis, 350 nm) versus temperature; type: physicochemical
Experimental: The temperature with the maximum positive slope was defined as the phase transition temperature for each condition. (FIG. 2B) The concentration-temperature phase diagram was determined for both ELPs, and fit to the following equation: Tt=b−m Log10[CELP].
Both ELPs at different concentrations (5 μM to 100 μM) were subject to a precisely controlled temperature increase from 25 to 75° C. at a rate of 1° C./min. The Tt of ELPs is defined as the temperature at which the first derivative of the optical density with respect to the temperature reaches a maximum.

MDA-MB-468 cells = experiment: Split luciferase reporter for cytosolic Rapa; type: cell-based
Description: FIGS. 22A-22B: FAF delays the access of Rapa to the cytosol in a manner consistent with macropinocytosis. FIG. 22A: MDA-VB-468 cells were transfected with a split luciferase reporter that enables the specific detection of Rapa within the cytosol. […] Free Rapa luminescence kinetics were unaffected by amiloride. (Mean±95% CI, n=6).
To understand drug release, cells were engineered to express a luciferase reporter for cytosolic Rapamycin. […] This is evidence that FAF dominates the intracellular delivery of rapalogues.

MDA-MB-468 cell line = experiment: Cellular uptake of FAF; type: cell-based; conditions: concentrations up to 100 μM

Pin1, sequence (Q13526 whole entry): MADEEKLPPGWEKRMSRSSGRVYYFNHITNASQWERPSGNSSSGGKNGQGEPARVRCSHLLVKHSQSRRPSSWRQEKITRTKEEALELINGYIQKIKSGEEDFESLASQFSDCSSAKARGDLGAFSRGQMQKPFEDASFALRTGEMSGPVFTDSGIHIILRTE

Molecule: CC1=C(/C=C/C(C)=C/C=C/C(C)=C/C(=O)O)C(C)(C)CCC1 [ATRA, All trans retinoic acid]
- affinity to Pin1 (Pin1): sun-micromolar affinity
- AUC on 28th day of administration relative to AUC on day 1 ([1]; daily treatment): 10%
- half-life ([1]; in vivo): 0.75 h

Molecule: CO[C@H]1C[C@@H]2CC[C@@H](C)[C@@](O)(O2)C(=O)C(=O)N2CCCC[C@H]2C(=O)O[C@H]([C@H](C)C[C@@H]2CC[C@@H](OCCO)[C@H](OC)C2)CC(=O)[C@H](C)/C=C(\C)[C@@H](O)[C@@H](OC)C(=O)[C@H](C)C[C@H](C)/C=C/C=C/C=C/1C [Eve, Everolimus]
- patients with adverse events necessitating discontinuation of treatment [2]: 10 % of patients
- patients with adverse events necessitating dose reduction [2]: 75 % of patients
- tumor growth compared to PBS treated mice (BT-474 orthotopic tumors): not statistically significant

Molecule: CO[C@H]1C[C@@H]2CC[C@@H](C)[C@@](O)(O2)C(=O)C(=O)N2CCCC[C@H]2C(=O)O[C@H]([C@H](C)C[C@@H]2CC[C@@H](O)[C@H](OC)C2)CC(=O)[C@H](C)/C=C(\C)[C@@H](O)[C@@H](OC)C(=O)[C@H](C)C[C@H](C)/C=C/C=C/C=C/1C [Rapa, Rapamycin]
- suppression of lymphocytic infiltration compared to vehicle (male NOD mice): 2.7 fold

Molecule: CA192: cyclophilin A fused to ELP A192, SEQ ID NO: 3
- CsA loading compared with a comparator [3]: significantly more drug than albumin
- stability of Rh ([4]; 37° C., up to 48 h): well maintained throughout 48 h; also recorded: no significant hydrodynamic radius shift; also recorded: stability over 2 days
- mean hydrodynamic radius (Rh) ([4]; DLS intensity, 20 μM): 64.8±0.7 nm
- co-localization with lysosomes (HeLa cells): obvious co-localization with lysosome; also recorded: co-localized with lysosomes; also recorded: co-localizing with lysosomes
- Mass Fraction, Fraction 1 (Nano-aggregated form) ([5]; MALS): 10.1%
- Mass Fraction, Fraction 2 (Dimeric form) ([5]; MALS): 89.9%
- multimerized particles in solution ([5]; from CA192 concentration of both SEC fractions): 20.8 % by mass
- transfer of CsA from CA192 to albumin (human albumin): No significant drug loss; also recorded: unable to extract CsA
- Transition temperature (Tt) ([6]; at 25 μM, 1° C./min): 45.4 °C
- Slope, m ([6]; fit Tt = b - m Log10[CELP], mean ± 95% CI, Table 2): 1.3 ° C./Log10(μM) and 1.3 ± 0.27 ° C./Log10(μM)
- Intercept, b ([6]; intercept at 1 μM, mean ± 95% CI, Table 2): 47.1 °C and 47.1 ± 0.39 °C

Molecule: FAF: FKBP fused to each terminus of ELP A192, SEQ ID NO: 25
- MAT (SC, Non-compartment): 9.6 h
- elimination half-life (mouse, in vivo, iv): about 7 hrs
- MRT (mouse, in vivo, sc): 20.3 h
- Tmax (mouse, in vivo, sc): 12 h
- delay of cytosolic access of Rapa versus free drug (MDA-MB-468 cells): about a half-hour
- effect of amiloride on cytosolic detection of Rapa (MDA-MB-468 cells; macropinocytosis inhibitor amiloride added): completely suppressed
- saturation of cellular uptake (MDA-MB-468 cell line): no dose-dependent saturation
- Transition temperature at 25 μM ([6]; 25 μM, Table 5): 55.1 °C
